What was measured:
HLA-B*44:02 = target: T1, HLA-B*44:02 (human); experiment: UV-ligand exchange, anti-b2m ELISA; exchange yield grade (+ >10%, ++ >20%, +++ >50, ++++ >75%)
T1 construct: Peptide-receptive MHC monomer made by UV cleavage of a UV-sensitive peptide
Excerpt: (§1) Candidate peptides for T cell based therapies according to the present invention were further tested for their MHC binding capacity (affinity). The individual peptide-MHC complexes were produced by UV-ligand exchange, where a UV-sensitive peptide is cleaved upon UV-irradiation, and exchanged with the peptide of interest as analyzed. Only peptide candidates that can effectively bind and stabilize the peptide-receptive MHC molecules prevent dissociation of the MHC complexes. To determine the yield of the exchange reaction, an ELISA was performed based on the detection of the light chain (β2m) of stabilized MHC complexes. The assay was performed as generally described in Rodenko et al. (Rodenko et al., 2006).
(§2) 96 well MAXISorp plates (NUNC) were coated over night with 2 ug/ml streptavidin in PBS at room temperature, washed 4× and blocked for 1 h at 37° C. in 2% BSA containing blocking buffer. Refolded HLA-A*02:01/MLA-001 monomers served as standards, covering the range of 15-500 ng/ml. Peptide-MHC monomers of the UV-exchange reaction were diluted 100-fold in blocking buffer. Samples were incubated for 1 h at 37° C., washed four times, incubated with 2 ug/ml HRP conjugated anti-β2m for 1 h at 37° C., washed again and detected with TMB solution that is stopped with […]. Absorption was measured at 450 nm. Candidate peptides that show a high exchange yield (preferably higher than 50%, most preferred higher than 75%) are generally preferred for a generation and production of antibodies or fragments thereof, and/or T cell receptors or fragments thereof, as they show sufficient avidity to the MHC molecules and prevent dissociation of the MHC complexes.

HLA-A*03:01 = target: T2, HLA-A*03:01 (human); experiment: as above
T2 construct: Peptide-receptive MHC monomer made by UV cleavage of a UV-sensitive peptide
Excerpt: as §1, §2

Row | peptide exchange yield (HLA-B*44:02) | peptide exchange yield (HLA-A*03:01) | Binder
1 | 50 to 75% |  | SENPETITY
2 | 50 to 75% |  | DEYLIPQQGF
3 |  | 20 to 50% | ALDKPGKSK
4 |  | 20 to 50% | RMPPPLPTR
5 | 20 to 50% |  | AEKDGKLTDY
6 | 10 to 20% |  | ARLTPIPFGL
7 | 20 to 50% |  | HELENHSMY
8 | 50 to 75% |  | KESDGFHRF
9 | 20 to 50% |  | IEALLESSL
10 |  | 20 to 50% | KIKEHVRSK
11 |  | 50 to 75% | QLYSKFLLK
12 |  | 50 to 75% | AVLDLGSLLAK
13 |  | 20 to 50% | TVASLHTEK
14 | 20 to 50% |  | AEIHTAEI
15 |  | 20 to 50% | MLLQQPLIY
16 |  | 20 to 50% | FSLAGALNAGFK
17 |  | 50 to 75% | KLFGTSGQK
18 | 20 to 50% |  | EEKLIIQDF
19 | 50 to 75% |  | AENLFRAFL
20 | 20 to 50% |  | REAEPIPKM
21 | 20 to 50% |  | EEVDVPIKLY
22 | 50 to 75% |  | EEESLLTSF

Row | peptide exchange yield (HLA-B*44:02) | peptide exchange yield (HLA-A*03:01) | Binder
23 |  | 20 to 50% | SSASLAHMK
24 | 20 to 50% |  | TEVLDSHIHAY
25 |  | 20 to 50% | ATYEGIQKK
26 |  | 20 to 50% | QVPTFTIPK
27 |  | 20 to 50% | KLYPTYSTK
28 | 50 to 75% |  | MELLLVNKL
29 | 20 to 50% |  | DESEKTTKSF
30 |  | 50 to 75% | ATALSLSNK
31 | 20 to 50% |  | AEKQTPDGRKY
32 |  | 20 to 50% | ALLGVIIAK
33 | > 75% |  | LEMPHYSTF
34 |  | 50 to 75% | SSYSRSSAVK
35 |  | 50 to 75% | KMMADYGIRK
36 |  | 20 to 50% | STKSTSPPK
37 |  | 20 to 50% | KVLGPNGLLK
38 |  | 20 to 50% | STSHHLVSR
39 |  | 50 to 75% | ATWSASLKNK
40 |  | 50 to 75% | KMAAWPFSR
41 |  | 20 to 50% | SVKLQGTSK
42 |  | 20 to 50% | AVATKFVNK
43 | 20 to 50% |  | EEAPLVTKAF
44 |  | 20 to 50% | IIAKKYFFK

Row | peptide exchange yield (HLA-B*44:02) | peptide exchange yield (HLA-A*03:01) | Binder
45 |  | 10 to 20% | GSRLGKYYVK
46 | 20 to 50% |  | EEFETLKEF
47 |  | 50 to 75% | GSYSALLAKK
48 |  | 20 to 50% | RLSPNDQYK
49 |  | 20 to 50% | ATAYGSTVSK
50 |  | 20 to 50% | KLGNNPVSK
51 |  | 50 to 75% | KSFDRHFEK
52 |  | 20 to 50% | STTKLYLAK
53 |  | 20 to 50% | STQDTLLIK
54 | 50 to 75% |  | TEHTQSQAAW
55 |  | 50 to 75% | TAYGSTVSK
56 |  | 20 to 50% | KTPSGALHRK
57 |  | 20 to 50% | GSAALYLLR
58 |  | 20 to 50% | GVIIAKKYFFK
59 |  | 20 to 50% | VLGPNGLLK
60 |  | 50 to 75% | RIYNGIGVSR
61 |  | 50 to 75% | SAFGYVFPK
62 |  | 20 to 50% | GTESGTILK
63 |  | 20 to 50% | KIIAPLVTR
64 |  | 20 to 50% | STNNEGNLK
65 |  | 50 to 75% | ATMQSKLIQK

Source: patent US20180291082A1 (IMMATICS BIOTECHNOLOGIES, published 2018)
